This passage reports stoichiometry N (per BG505 trimer) results from article doi:10.1101/2020.08.21.261974.

This experiment concerns the target BG505 SOSIP.664 native-like envelope gp140 trimer (HIV-1 (BG505)). In words: cryo-EM structure.

M48U1 peptide: the stoichiometry N (per BG505 trimer) is 3.
